US20100166775A1 (ACTIVE BIOTECH, published 2010)

B6: recombinant human S100A9 (ligand)
chain: MTCKMSQLERNIETIINTFHQYSVKLGHPDTLNQGEFKELVRKDLQNFLKKENKNEKVIEHIMEDLDTNADKQLSFEEFIMLMARLTWASHEKMHEGDEGPGHHHKPGLGEGTP
notes: Concentrations are based on the homodimeric molecular weight; Assays were run with Ca2+ and Zn2+; also called hS100A9; rhS100A9

Legend:
[1] = target: T1, recombinant human RAGE/Fc chimera (R&D Systems cat. No. 1145-RG) (human, UniProt Q15109 23-344); assay: SPR (Biacore), 200 nM protein over amine-coupled RAGE/Fc, 1 mM CaCl2 and 10 µM ZnCl2; Req or response at late association, not corrected for mass
T1 construct: Disulfide-linked homodimer expressed in NS0 cells, glycosylated and amine-coupled to a CM5 chip; also called rhRAGE-Fc; immobilized RAGE; not shown: peptide linker between RAGE and Fc; Fc region of human IgG1
T1 sequence (Q15109 23-344, change not shown): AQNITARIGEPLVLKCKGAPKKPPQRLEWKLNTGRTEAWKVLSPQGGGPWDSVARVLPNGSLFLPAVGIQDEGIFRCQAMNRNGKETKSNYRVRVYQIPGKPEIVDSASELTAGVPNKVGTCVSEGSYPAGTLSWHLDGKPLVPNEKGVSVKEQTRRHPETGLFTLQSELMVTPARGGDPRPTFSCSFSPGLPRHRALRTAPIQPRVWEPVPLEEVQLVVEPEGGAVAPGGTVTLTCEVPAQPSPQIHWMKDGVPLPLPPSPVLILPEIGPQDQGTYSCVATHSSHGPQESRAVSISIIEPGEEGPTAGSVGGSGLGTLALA
Experimental: (§1) Binding analysis was performed using the “surface plasmon resonance” (SPR) technology with a Biacore 3000™ system. This technology allows analysis of an interaction between proteins and small molecules in a real-time and label-free manner. A protein or low-molecular weight compound is injected over a surface (a CM5 sensor chip) with a covalently coupled ligand and the signal produced, expressed as resonance units (RU), is directly proportional to the number and mass of the molecule interacting with the ligand on the surface. Immobilization, regeneration scouting, surface performance tests and binding studies were conducted basically according to the instructions by the manufacturer. Kinetic evaluation of binding data was carried using the BIAevaluation Software Version 3.2 (Biacore AB). Optimization of conditions for immobilization and binding analysis is carried out for each interaction to be studied.
(§2) Recombinant human RAGE was obtained from R&D Systems (cat. No. 1145-RG) as a fusion protein of the extracellular domain of RAGE, comprising a.a. 1-344, and the Fc region of human IgG₁ via a peptide linker. The chimeric protein was expressed in the mouse myleoma cell line NSO as a disulfide-linked homo-dimeric protein with a calculated molecular mass of 61 kDa. Prior to covalent coupling to the sensor chip, buffer was changed to a standard Biacore buffer (10 mM Hepes, 0.15 M NaCl, pH 7.4, containing 0.005% v/v Surfactant P20; HBS-P) using Fast Protein Desalting Micro-Spin Columns (Pierce). RAGE was diluted in an immobilization buffer shown to give sufficient pre-concentration and then covalently coupled using the “Aim at immobilization level” function in the Biacore Wizard to obtain various coupling densities. Activity of immobilized RAGE was tested by injecting a specific anti-human RAGE monoclonal antibody over the surface.

[2] = target: T1, recombinant human RAGE/Fc chimera (R&D …); assay: SPR (Biacore), 200 nM protein over amine-coupled RAGE/Fc, 1 mM CaCl2 and 10 µM ZnCl2
Experimental: as §1, §2

[3] = target: T1, recombinant human RAGE/Fc chimera (R&D …); assay: placeholder
recombinant human S100A9 [4] = target: B6; assay: SPR competition: 100 nM S100A9 pre-incubated with 12.5-500 nM 43/8, injected over immobilized RAGE-Fc; log-logit plot
Experimental: (§3) Binding data were transformed to a log-logit plot for calculation of IC₅₀ value.
The assay was performed by coating human RAGE on a standard CM5 chip at high density (3000 RU) using standard amine coupling.

recombinant human S100A9 [5] = target: B6; assay: SPR competition: 100 nM S100A9 pre-incubated with 12.5-500 nM 43/8, injected over immobilized TLR4/MD-2; log-logit plot
Experimental: as §3
The assay was performed by coating human TLR4/MD-2 complex on a CM5 chip at a density of ˜3000 RU using standard amine coupling.

recombinant human S100A9 [6] = target: B6; assay: SPR competition: 100 nM human S100A9 pre-incubated with 0-400 nM 43/8 or 1C10, injected over immobilized 43/8; reference 1C10
Experimental: Incubated samples were then injected for 3 min at a flow rate of 30 μl/min (1; association phase) followed by injection of sample buffer (2; dissociation phase). Responses were calculated at late association phase.

recombinant human S100A9 [7] = target: B6; assay: SPR competition: 100 nM S100A9 pre-incubated with 12.5-500 nM 43/8, injected over immobilized amino-linked Compound A (a small molecule); log-logit plot
Experimental: The assay was performed by coating amino-linked Compound A on a CM5 chip using standard amine coupling.

B1: murine S100A8/S100A9 complex (other)
chain 1: PSELEKALSNLIDVYHNYSNIQGNHHALYKNDFKKMVTTECPQFVQNINIENLFRELDINSDNAINFEEFLAMVIKVGVASHKDSHKE
chain 2: ANKAPSQMERSITTIIDTFHQYSRKEGHPDTLSKKEFRQMVEAQLATFMKKEKRNEALINDIMEDLDTNQDNQLSFEECMMLMAKLIFACHEKLHENNPRGHGHSHGKGCGK
notes: Heterodimer; also called murine S100A8/A9; murine complex S100A8/A9
[1]
  binding result: binds

B2: murine S100A8 (other, UniProt P27005 2-89, looked up)
chain: PSELEKALSNLIDVYHNYSNIQGNHHALYKNDFKKMVTTECPQFVQNINIENLFRELDINSDNAINFEEFLAMVIKVGVASHKDSHKE
notes: Concentration is based on the homodimeric molecular weight
[2]
  binding result: no binding (tested: 200 nM)

B3: murine S100A9 (other, UniProt P31725 2-113, looked up)
chain: ANKAPSQMERSITTIIDTFHQYSRKEGHPDTLSKKEFRQMVEAQLATFMKKEKRNEALINDIMEDLDTNQDNQLSFEECMMLMAKLIFACHEKLHENNPRGHGHSHGKGCGK
notes: as for B2
[2]
  binding result: no binding (tested: 200 nM)

B4: S100B (other, human, UniProt P04271 1-92, looked up)
chain: MSELEKAMVALIDVFHQYSGREGDKHKLKKSELKELINNELSHFLEEIKEQEVVDKVMETLDNDGDGECDFQEFMAFVAMVTTACHEFFEHE
notes: also called S100β; recombinant human S100β
[2]
  binding result: no binding (tested: 200 nM)

B5: human S100A8/S100A9 complex (other)
chain 1: MLTELEKALNSIIDVYHKYSLIKGNFHAVYRDDLKKLLETECPQYIRKKGADVWFKELDINTDGAVNFQEFLILVIKMGVAAHKKSHEESHKE
chain 2: MTCKMSQLERNIETIINTFHQYSVKLGHPDTLNQGEFKELVRKDLQNFLKKENKNEKVIEHIMEDLDTNADKQLSFEEFIMLMARLTWASHEKMHEGDEGPGHHHKPGLGEGTP
notes: Heterodimer; also called S100A8/A9; S100A8/9
[1]
  binding result: binds

## B6
[3]
  fold higher binding than the next group of RAGE binders (AnxII, S100A12, S100A8/9): 10 fold

B7: human S100A8 (other, UniProt P05109 1-93, looked up)
chain: MLTELEKALNSIIDVYHKYSLIKGNFHAVYRDDLKKLLETECPQYIRKKGADVWFKELDINTDGAVNFQEFLILVIKMGVAAHKKSHEESHKE
notes: The source is 'produced recombinantly ... or obtained from elsewhere'
[2]
  binding result: no binding (tested: 200 nM)

B8: human S100A12 (other, UniProt P80511 2-92, looked up)
chain: TKLEEHLEGIVNIFHQYSVRKGHFDTLSKGELKQLLTKELANTIKNIKDKAVIDEIFQGLDANQDEQVDFQEFISLVAIALKAAHYHTHKE
notes: also called S100Al2
[1]
  binding result: binds

B9: hS100A11 (other, human, UniProt P31949 1-105, looked up)
S100A11: MAKISSPTETERCIESLIAVFQKYAGKDGYNYTLSKTEFLSFMNTELAAFTKNQKDPGVLDRMMKKLDTNSDGQLDFSEFLNLIGGLAMACHDSFLKAVPSQKRT
notes: recombinant; also called recombinant human S100A11 (ProSpec TechnoGene)
[2]
  binding result: no binding (tested: 200 nM)

B10: anti-S100A9 monoclonal antibody 43/8 (antibody, V domains shown)
VH: PELVKSGASVKISCKASGYSFTDYNINWVKQSNGKSLEWIGLINPNYGTTFYNQKFKGKATLTVDQSSSTAYMQLNSLTSEDSAVYYCARETLLLRYFDYWGQGTTLTVSS
VL: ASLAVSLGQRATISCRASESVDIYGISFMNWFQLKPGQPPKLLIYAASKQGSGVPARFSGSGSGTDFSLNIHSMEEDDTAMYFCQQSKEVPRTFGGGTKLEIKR
notes: Mouse monoclonal from an S100A9-null C57BL/6 mouse; also called anti-S100A9 mAb 43/8; mAb 43/8
Recombinant human S100A9 [4]
  IC50: 34 nM
Recombinant human S100A9 [5]
  IC50: 27 nM
Recombinant human S100A9 [6]
  fold higher inhibition of S100A9 binding to immobilized 43/8 than for antibody 1C10: > 10 fold
Recombinant human S100A9 [7]
  IC50: 120 nM

B11: S100A1 (other, human, UniProt P23297 1-94, looked up)
chain: MGSELETAMETLINVFHAHSGKEGDKYKLSKKELKELLQTELSGFLDAQKDVDAVDKVMKELDENGDGEVDFQEYVVLVAALTVACNNFFWENS
notes: also called recombinant human S100A1
[2]
  binding result: no binding (tested: 200 nM)
